Consider 25 molecules from article PMC11099193, “Extracellular modulation of TREK-2 activity with nanobodies provides insight into the mechanisms of K2P channel regulation” (Nature Communications, 2024).

T1: biotinylated TREK-2 (Homo sapiens, biotin (site not stated))
T1 construct: the buffer (OGNG/CHS) is that of the cryo-EM sample
T1 chain: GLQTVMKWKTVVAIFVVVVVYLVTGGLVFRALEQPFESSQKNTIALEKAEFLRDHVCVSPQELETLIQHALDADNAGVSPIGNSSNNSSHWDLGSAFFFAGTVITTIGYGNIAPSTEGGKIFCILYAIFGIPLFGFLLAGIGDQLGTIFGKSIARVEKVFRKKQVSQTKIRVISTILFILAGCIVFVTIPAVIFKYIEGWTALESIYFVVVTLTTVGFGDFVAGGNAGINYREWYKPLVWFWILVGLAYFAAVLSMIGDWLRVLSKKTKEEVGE

T2: human TREK-2 protein (residues Gly67 to Glu340) (human)
T2 chain: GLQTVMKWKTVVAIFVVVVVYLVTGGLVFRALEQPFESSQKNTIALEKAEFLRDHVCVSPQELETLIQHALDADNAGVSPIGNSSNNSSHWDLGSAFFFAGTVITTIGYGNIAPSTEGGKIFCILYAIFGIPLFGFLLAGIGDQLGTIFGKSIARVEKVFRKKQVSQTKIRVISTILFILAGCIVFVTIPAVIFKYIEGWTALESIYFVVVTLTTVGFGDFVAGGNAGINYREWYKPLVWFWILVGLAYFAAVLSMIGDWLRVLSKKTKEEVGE

B1: Nb-Inhibitor-61 (VHH)
VHH: QVQLVESGGGLVQAGDSLRVSCAGSGFTFTSYGMGWFRQAPGKEREFVASINWNSNTAYADSVRGRFTISRDNAESMMYLQMNSLKPEDTAVYYCAATRAYSKPRVDSRHYDYWGQGTQVTVSS
notes: also called CA10761; Nb61; source: E. coli WK6, periplasm, purified (Ni-NTA)
B2: CA10780 (VHH)
VHH: QVQLVESGGGLVQAGGSLRLSCAASGRTFSSYAMGWFRQAPGKEREFVAAISWSGGSTYYADSVKGRFTVSRDNAKNTVYLQMNSLKPEDTAVYYCAADSISTAQAMRVNERDYGMDYWGKGTQVTVSS
B3: CA10773 (VHH)
VHH: QVQLVESGGGLVQPGGSLRLSCAASGFTFSSYPMSWARQAPGKGLEWVSAINRGGSSTNYADSVKGRFTISRDNAKNTLYLQMDSLKPEDTAVYYCFKGGTRGQGTQVTVSS
B4: CA10774 (VHH)
VHH: QVQLVESGGGLVQPGGTLRLSCAASGFTFSSKPMSWARQAPGKGLEWVSAISRDGSSTNYADSVKGRFTISRNNAWNTLYLQMDNLKPEDTAVYYCFMGGTRGQGTQVTVSS
B5: CA10764 (VHH)
VHH: QVQLVESGGGLAQAGGSLRLSCAASGRTFSNYAMGWFRQAPGKEREFVATISSSGGTIRYADSVKGRFTISRDNAKNTVALQMNVLKPEDTAVYYCAQSKYGRAWSDRYEYDRWGQGTQVTVSS
B6: CA10763 (VHH)
VHH: QVQLVESGGGLVQAGGSLRLSCAASGLTFSGYPMGWFRQAPGKEREFVATISRSGNNMHYADSVKGRFTISRDNAKNTVSLQMNSLKPEDTAVYYCAADSTTLRRGVASVEYWGQGTQVTVSS
B7: CA10754 (VHH)
VHH: QVQLVESGGGLVQAGGSLRLSCAASGRTFSTYAMSWFRQAPGKEREFVARIRWSTTRTSSTYYADSVKGRFTISGDNAKNTVYLQMDSLKPEDTAVYYCAAVINPYSSAYEYWGQGTQVTVSS
B8: CA10765 (VHH)
VHH: QVQLVESGGGLVQAGGSLRLSCAASGFTFDDYAIGWFRQAPGKEREGVSCISSSDGSTYYADSVKGRFTISSDNAKNTVYLQMNSLKPEDTAVYYCAADPYLYCSDYGDSGTLSYYGVDYWGKGTQVTVSS
B9: CA10752 (VHH)
VHH: QVQLVESGGGLVQAGGSLRLSCAASGRTSSTYAMSWFRQPPGKEREFVARIRWSGSNTYYADSVKGRFTISGDNAKNTVYLQMNSLKAEDTAVYYCAAVIDPYSSAYEYWGQGTQVTVSS
B10: CA10753 (VHH)
VHH: QVQLVESGGGLVQAGGSLRLSCAASGRTFSTYAMSWFRQAPGKEREFVARIRWSGTSTAYADSVKGRFFISGDNAKNTVYLQMNSLKPEDTAVYYCAAVINPYSSAYEYWGQGTQVTVSS
B11: CA10770 (VHH)
VHH: QVQLVESGGGLVQAGGSLRLSCAASGRSFSSYRMAWFRQAPGLEREFVAAISRSGSNTDYADSVKGRFTISRDNAKNTVYLQMNSLKPDDTAVYFCAANTSPLLGSVATGQEYYIYWAQGTQVTVSS
B12: CA10755 (VHH)
VHH: QVQLVESGGGLVQAGGSLRLSCAASRSIVTINAMSWHRQAPGKQRELVASITKRGRTNIADSVKGRFAISWDRNTVYLQMNSLKPEDTAVYYCAALTDIPMNTYWGQGTQVTVSS
B13: CA10778 (VHH)
VHH: QVQLVESGGGLVQAGGSLRLSCAASRGIFTITAMSWHRQAPGKQRELVASITRRGRTNIADSVKDRFAISWDKNTVYLQMNSLKPEETAVYYCAALTDAPMNTYWGQGTQVTVSS
B14: CA10756 (VHH)
VHH: QVQLVESGGGLVQAGGSLRLSCAASRSFVTINAISWHRQAPGKQRELVASITKRGRTNIADSVKGRFAISWDKNTVYLQMNSLKPEDTANYYCAALTDIPVNTYWGQGTQVTVSS
B15: CA10766 (VHH)
VHH: QVQLVESGGGLVQAGGSLRLSCAASGRSFSTYGIGWFRQAPGRERDLVASISWSGGGTYYADSVKGRSTISRDNAKNMVDLQMNSLKPEDTAVYYCAARRLGGVGRIVQYDYWGQGTQVTVSS
B16: CA10779 (VHH)
VHH: QVQLVESGGGAVQAGGSLRLSCASSDHSFTRYTIAWFRQAPGKEREFVAALTWNGGITNYADSVKGRFTISRENGKNTAYLQMDALESEDTAVYYCAAVFGPASLTREDMYEYWGQGTQVTVSS
B17: CA10772 (VHH)
VHH: QVQLVESGGGLVQPGGSLRLSCAASGFTFSAYAMRWHRQAPGKGLEWVSSIDHSGAWPNYADSVKGRFTISRDNAKNTLYLQMDSLKPEDTAVYYCSKAGFRGQGTQVTVSS
B18: CA10769 (VHH)
VHH: QVQLVESGGGLVQAGDSLRLSCAASGRTSSSDVMGWFRQAPGKGREFVAETSWRGGKTAYADSVKGRFAISRDNAKNTVYLQMNNLKPEDTAVYYCAVLHADSSTYAYWGQGTRVTVSS
B19: CA10759 (VHH)
VHH: QVQLVESGGGLVQAGGSLRLSCAASGLTFSRYNMGWFRQAPGKEREFVAAINRYGGTMYATDSVKGRFTISRDNVKSTVDLQMNRLKPEDTAVYYCAADQQYMSRLEADFGSWGQGTQVTVSS
B20: CA10760 (VHH)
VHH: QVQLVESGGGLVQAGGSLRLSCAASGLTFSAYNMGWFRQAPGKEREFVAAINRYGGTLYTTDSVKGRFTISRDNVKSTVDLQMNRLEPEDTAVYYCAADQQYMSRLEADFGSWGQGTQVTVSS
B21: CA10777 (VHH)
VHH: QVQLVESGGGLVQPGGSLRLSCAASGLIARLIDWGWYRQAPGKQRELVAAITAGGRTNYTDSVKGRFTISRDDPKNTVYLQMSALKPEDTAVYYCCVDFRSYAGKQYHYCGQGTQVTVSS
B22: CA10771 (VHH)
VHH: QVQLVESGGGLVQAGGSLRLSCAASGRTASLYAMDWFRQAPGKEREFVARLILSTFGTNYADSVKGRFTFSRDNAKNTVYLQMNNLKPEDTGVYFCAAHSLTSTNWDQGTQVTVSS
B23: Nb-Binder-58 (VHH)
VHH: QVQLVESGGGLVQAGGSLRLSCAASGRAGSGYAMGWFRQAPGKEREIVGAISWSGDNTYYADSVRGRVTISRDYAQNTVYLQMNSLKPEDTAVYYCAADGRGNLRRGTAGRYVEYWGQGTQVTVSS
notes: also called CA10758; Nb58; source: E. coli WK6, periplasm, purified (Ni-NTA)
B24: Nb-Binder-57 fused to mVenus (VHH)
VHH: QVQLVESGGGLVQAGDSLRLSCASSGRALSNVAMGWFRQAPGKEREIVAAISWSGDNTYYADSGRGRFTISRDNAKNTVYLQMNNLRPEDTAVYYCAADGRGNLRRGTAGRYVDYWGQGTQVTVSS
notes: mVenus joined by a (GS)2 linker; also called CA10757; Nb57; source: cloned into the pFAW vector; not shown: mVenus, C-terminal, kept
B25: Nb-Binder-58 fused to the mVenus fluorescent protein (VHH)
VHH: QVQLVESGGGLVQAGGSLRLSCAASGRAGSGYAMGWFRQAPGKEREIVGAISWSGDNTYYADSVRGRVTISRDYAQNTVYLQMNSLKPEDTAVYYCAADGRGNLRRGTAGRYVEYWGQGTQVTVSS
notes: as the VHH of m9 (Nb58); mVenus joined by a (GS)2 linker; also called Nb58 fused to mVenus; source: cloned into the pFAW vector; not shown: mVenus, C-terminal, kept

The first assay deals with T1, biotinylated TREK-2. The assay is described as follows: BLI; Octet Red; biotinylated TREK-2 (50 nM) loaded on streptavidin biosensors in 200 mM KCl, 20 mM HEPES pH 7.5, 0.12% OGNG, 0.012% CHS; nanobody dilutions 2 µM-7.8 nM (Nb61) and 1000 nM-3.9 nM (Nb6158); 600 s association, 600 s dissociation. Particulars: both partners purified. For orientation: BLI is a label-free optical method that tracks binding on a fibre tip over time.
As for B1, binding was characterised by a dissociation constant (Kd) of 1100 nM.

For the next assay, the target named is T2, human TREK-2 protein (residues Gly67 to …).
Experiment: not given
Settings: not given
Regarding B2, the binding result is listed as “binds”.

Turning to B3, the binding result was “binds”.

In the case of B4, the binding result is reported as “binds”.

On to B5, for which the binding result is reported as “binds”.

Take B6: the binding result is “binds”.

As to B7, the binding result is recorded as “binds”.

On to B8, for which the binding result is listed as “binds”.

With B9, the binding result is listed as “binds”.

Consider B10, for which the binding result is “binds”.

As to B11, the binding result is “binds”.

For B12, the binding result was “binds”.

Take B13: the binding result was “binds”.

For B14, the binding result is listed as “binds”.

Regarding B15, the binding result was “binds”.

In the case of B16, the binding result is on record as “binds”.

As for B17, the binding result is on record as “binds”.

Turning to B18, the binding result is on record as “binds”.

As for B19, the binding result was “binds”.

As for B20, the binding result is reported as “binds”.

Take B21: the binding result is “binds”.

Regarding B22, the binding result is “binds”.

A further assay shares this target. The assay is described as follows: SEC; each nanobody mixed with purified TREK-2 in a 2:1 molar ratio, Sepax SRT SEC-300 column in 200 mM KCl, 20 mM HEPES pH 7.5; shift of the 280 nm TREK-2 peak against TREK-2 alone. As to conditions: both partners purified. In general terms: SEC sorts molecules by how far they enter the pores of the column.
Turning to B23, the binding result is recorded as “binds”.

For another assay, the target named is T3, TREK-2-mCherry fusion (Homo sapiens, UniProt P57789-4, strain).
T3 construct: The legend says HEK-293, the methods HEK293T; also called TREK-2 tagged with the mCherry fluorescent protein; K2P-mCherry-pFAW; source: HEK293T, transfected (pFAW vector), fixed cells; not shown: mCherry, C-terminal, kept
T3 sequence (P57789 whole entry, looked up, stated change not applied, the tested form may be a part): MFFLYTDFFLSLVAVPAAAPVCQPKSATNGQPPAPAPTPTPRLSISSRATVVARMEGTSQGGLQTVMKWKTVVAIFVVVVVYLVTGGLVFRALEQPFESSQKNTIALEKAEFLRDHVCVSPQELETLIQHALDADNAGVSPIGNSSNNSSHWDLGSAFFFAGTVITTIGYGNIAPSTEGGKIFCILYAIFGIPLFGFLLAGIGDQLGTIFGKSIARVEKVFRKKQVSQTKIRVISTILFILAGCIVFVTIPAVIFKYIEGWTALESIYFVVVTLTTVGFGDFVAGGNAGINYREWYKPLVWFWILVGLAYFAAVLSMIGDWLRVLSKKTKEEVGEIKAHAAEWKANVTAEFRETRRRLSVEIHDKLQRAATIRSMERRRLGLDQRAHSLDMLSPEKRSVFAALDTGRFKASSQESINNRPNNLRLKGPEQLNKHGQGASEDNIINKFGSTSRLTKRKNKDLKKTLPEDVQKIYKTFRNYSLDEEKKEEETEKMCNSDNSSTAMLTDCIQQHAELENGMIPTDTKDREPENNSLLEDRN
The assay is described as follows: immunostaining of cells or tissue; HEK293T cells transfected with K2P-mCherry, fixed with 4% formaldehyde, incubated with nanobody-mVenus for 2 h at 37 °C, washed, imaged for overlap of the two fluorescent signals.
Settings: not given
On to B24, for which the binding result was “binds”.

Turning to B25, the binding result is recorded as “binds”.

For another assay, the target named is T4, TREK-1 tagged with mCherry (Homo sapiens, UniProt O95069).
T4 construct: human TREK-1 K2P channel, stop codon removed and mCherry fused in frame to the C-terminus by a (GS)2 linker; source: HEK293T, transfected (pFAW vector), fixed cells; not shown: mCherry, C-terminal, kept
T4 sequence (O95069 whole entry, the tested form may be a part): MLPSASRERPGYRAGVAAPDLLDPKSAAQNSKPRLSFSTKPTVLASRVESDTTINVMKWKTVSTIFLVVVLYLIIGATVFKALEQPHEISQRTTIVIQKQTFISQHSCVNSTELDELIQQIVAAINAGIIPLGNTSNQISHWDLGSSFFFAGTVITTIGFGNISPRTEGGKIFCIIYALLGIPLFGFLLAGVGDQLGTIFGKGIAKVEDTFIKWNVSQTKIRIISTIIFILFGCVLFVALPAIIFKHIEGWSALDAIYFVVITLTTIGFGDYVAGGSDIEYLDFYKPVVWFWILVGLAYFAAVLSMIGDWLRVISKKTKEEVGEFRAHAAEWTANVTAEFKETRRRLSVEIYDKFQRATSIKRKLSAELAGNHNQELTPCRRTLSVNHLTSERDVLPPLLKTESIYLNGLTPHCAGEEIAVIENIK
The assay is described as above.
Settings: not given
Regarding B24, the binding result is “no binding”.

On to B25, for which the binding result is reported as “no binding”.

For orientation: Kd means the free concentration of one partner at which half of the binding sites on the other are occupied at equilibrium, for simple one-to-one binding.
